Measurements published in article PMC2699502.

B1: EcoR124I R subunit (HsdR) (enzyme)
chain: MTHQTHTIAESNNFIVLDKYIKAEPTGDSYQSESDLERELIQDLRNQGYEFISVKSQSAMLANVREQLQNLNGVVFNDSEWRRFTEQYLDNPSDGILDKTRKIHIDYICDFIFDDERLENIYLIDKKNLMRNKVQIIQQFEQAGSHANRYDVTILVNGLPLVQIELKKRGVAIREAFNQIHRYSKESFNSENSLFKYLQLFVISNGTDTRYFANTTKRDKNSFDFTMNWAKSDNTLIKDLKDFTATCFQKHTLLNVLVNYSVFDSSQTLLVMRPYQIAATERILWKIKSSFTAKNWSKPESGGYIWHTTGSGKTLTSFKAARLATELDFIDKVFFVVDRKDLDYQTMKEYQRFSPDSVNGSENTAGLKRNLDKDDNKIIVTTIQKLNNLMKAESDLPVYNQQVVFIFDECHRSQFGEAQKNLKKKFKRYYQFGFTGTPIFPENALGSETTASVFGRELHSYVITDAIRDEKVLKFKVDYNDVRPQFKSLETETDEKKLSAAENQQAFLHPMRIQEITQYILNNFRQKTHRTFPGSKGFNAMLAVSSVDAAKAYYATFKRLQEEAANKSATYKPLRIATIFSFAANEEQNAIGEISDETFDTSAMDSSAKEFLDAAIREYNSHFKTNFSTDSNGFQNYYRDLAQRVKNQDIDLLIVVGMFLTGFDAPTLNTLFVDKNLRYHGLMQAFSRTNRIYDATKTFGNIVTFRDLERSTIDAITLFGDKNTKNVVLEKSYTEYMEGFTDAATGEAKRGFMTVVSELEQRFPDPTSIESEKEKKDFVKLFGEYLRAENILQNYDEFATLKALQQIDLSDPVAVEKFKAEHYVDDEKFAELQTIRLPADRKIQDYRSAYNDIRDWQRREKEAEKKEKSTTDWDDVVFEVDLLKSQEINLDYILGLIFEHNRQNKGKGEMIEEVKRLIRSSLGNRAKEGLVVDFIQQTNLDDLPDKASIIDAFFTFAQREQQREAEALIKEENLNEDAAKRYIRTSLKREYATENGTELNETLPKLSPLNPQYKTKKQAVFQKIVSFIEKFKGVGGKI
B2: EcoR124I M subunit (HsdM) (enzyme)
chain: MKMTSIQQRAELHRQIWQIANDVRGSVDGWDFKQYVLGALFYRFISENFSSYIEAGDDSICYAKLDDSVITDDIKDDAIKTKGYFIYPSQLFCNVAAKANTNDRLNADLNSIFVAIESSAYGYPSEADIKGLFADFDTTSNRLGNTVKDKNARLAAVLKGVEGLKLGDFNEHQIDLFGDAYEFLISNYAANAGKSGGEFFTPQHVSKLIAQLAMHGQTHVNKIYDPAAGSGSLLLQAKKQFDNHIIEEGFFGQEINHTTYNLARMNMFLHNINYDKFDIKLGNTLTEPHFRDEKPFDAIVSNPPYSVKWIGSDDPTLINDERFAPAGVLAPKSKADFAFVLHALNYLSAKGRAAIVCFPGIFYRGGAEQKIRQYLVDNNYVETVISLAPNLFFGTTIAVNILVLSKHKTDTNVQFIDASELFKKETNNNILTDAHIEQIMQVFASKEDVAHLAKSVAFETVVANDYNLSVSSYVEAKDNREIIDIAELNAELKTTVSKIDQLRKDIDAIVAEIEGCEVQK

Molecular target: EcoR124I S subunit (HsdS) (UniProt P10485)
Sequence of UniProt P10485 (P10485 whole entry): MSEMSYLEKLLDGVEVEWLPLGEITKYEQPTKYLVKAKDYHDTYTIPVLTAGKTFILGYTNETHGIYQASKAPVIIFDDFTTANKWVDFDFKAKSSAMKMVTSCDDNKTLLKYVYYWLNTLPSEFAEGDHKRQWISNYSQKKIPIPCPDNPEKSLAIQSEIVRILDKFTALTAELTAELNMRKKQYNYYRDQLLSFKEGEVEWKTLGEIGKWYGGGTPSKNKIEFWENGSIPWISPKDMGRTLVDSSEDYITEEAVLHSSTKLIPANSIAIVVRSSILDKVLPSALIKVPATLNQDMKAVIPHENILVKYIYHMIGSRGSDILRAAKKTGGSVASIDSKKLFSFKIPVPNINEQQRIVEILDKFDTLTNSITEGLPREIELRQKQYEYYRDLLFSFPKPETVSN

Binder	stoichiometry N
B1	1 R per S
B2	2 M per S
